Test results as given in paper PMC7294595 (2020).
[ ]: non-standard residue; d: D form. CPP12 = cyclic cell-penetrating peptide fused at the N-terminus; pY = N[C@@H](Cc1ccc(OP(=O)(O)O)cc1)C(=O)O; βAla = NCCC(=O)O

Assays:
[1] = biological target: T1, ac-pTyr (gp130-derived phosphopeptide) (Homo sapiens); experiment: competition fluorescence polarization
T1 chain: Ac-G[pY]LPQTV-NH2

[2] = biological target: T2, CPP12-pTyr (Homo sapiens, not fully specified); experiment: competition fluorescence polarization
T2 chain: {CPP12-βAla-βAla}-G[pY]LPQTV-NH2

B1: STAT3 127-711 (protein)
chain: GQANHPTAAVVTEKQQMLEQHLQDVRKRVQDLEQKMKVVENLQDDFDFNYKTLKSQGDMQDLNGNNQSVTRQKMQQLEQMLTALDQMRRSIVSELAGLLSAMEYVQKTLTDEELADWKRRQQIACIGGPPNICLDRLENWITSLAESQLQTRQQIKKLEELQQKVSYKGDPIVQHRPMLEERIVELFRNLMKSAFVVERQPCMPMHPDRPLVIKTGVQFTTKVRLLVKFPELNYQLKIKVCIDKDSGDVAALRGSRKFNILGTNTKVMNMEESNNGSLSAEFKHLTLREQRCGNGGRANCDASLIVTEELHLITFETEVYHQGLKIDLETHSLPVVVISNICQMPNAWASILWYNMLTNNPKNVNFFTKPPIGTWDQVAEVLSWQFSSTTKRGLSIEQLTTLAEKLLGPGVNYSGCQITWAKFCKENMAGKGFSFWVWLDNIIDLVKKYILALWNEGYIMGFISKERERAILSTKPPGTFLLRFSESSKEGGVTFTWVEKDISGKTQIQSVEPYTKQQLNNMSFAEIIMGYKIMDATNILVSPLVYLYPDIPKEEAFGKYCRPESQEHPEADPGSAAPYLKTKFI
With B1 the IC50 [1] was 610 nM and the IC50 [2] was 410 nM.
